Test results as given in patent US20020106374A1.

Target: HIV-1JR-FL envelope glycoproteins gp120/gp41 (HIV-1 JR-FL)
Assay: cell-based or functional assay

| Substance | IC90, inhibition of HIV-1JR-FL Env-mediated cell-cell fusion (RET assay) | IC90, inhibition of HIV-1JR-FL virus-cell fusion (luciferase reporter virus, HeLa-CD4+CCR5+ cells) | K (equal to IC50), inhibition of env-mediated membrane fusion (RET) between HeLa-EnvJR-FL and PM1 cells | activity in the RET assay after co-incubation of HeLa-Env cells, PM1 cells and inhibitor for 2 h at 25° C., washing and warming to 37° C. | potency in the washout RET assay (drug pre-incubated with HeLa-Env cells, washed, then PM1 cells added) against the standard assay | increase in IC50 in the RET assay after co-incubation of HeLa-Env cells, PM1 cells and inhibitor for 2 h at 25° C., washing and warming to 37° C. (fold increase in IC50) |
| --- | --- | --- | --- | --- | --- | --- |
| CD4-IgG2 (from UniProt P01730 26-203; P01730 26-203) (Fc fusion) | 0.011 µM | 0.012 µM | 0.31 mg/L | 12 fold lower | 6 fold lower |  |
| T-20 (peptide) | 0.022 µM | 0.045 µM | 0.017 mg/L |  |  | > 250 |
